In the data set the target is 6His-CpsR (Streptococcus pneumoniae D39, UniProt A0A0H2ZMA3 1-247). Kind of data set: EMSA; 0.25 uM probe; EMSA: 20 ul, LightShift kit buffer (composition not given) with 50 ng/ul poly(dI-dC), 20 min room temperature, 6% gel; footprinting: 400 ng probe in 40 ul, 30 min at 25 C. The note with it: protein: recombinant; tags: 6His; chain copies: 2; label: 5'-biotin (top strand); blunt.

B1: WT 33-mer (dsDNA)
DNA 1: TGTCATGTTCTTATTTCATTTTACTATATTTTT
DNA 2: AAAAATATAGTAAAATGAAATAAGAACATGACA
Take B1: the binding result was “binds”.

Values taken from article PMC4937376, “CpsR, a GntR family regulator, transcriptionally regulates capsular polysaccharide biosynthesis and governs bacterial virulence in Streptococcus pneumoniae”.
